Molecular target: T1, recombinant human tumor necrosis factor-α (Biosource PHC3011, Belgium) (human, UniProt P01375 77-233)
T1 construct: Bought recombinant protein; also called hTNFα; hTNF-α
Test: competitive ELISA: TSK11 pre-incubated with soluble hTNFα, then added to hTNFα-coated wells; Scatchard plot analysis (Friguet method)
Experimental: In vitro binding affinity of TSK11 antibody against hTNFα was determined by ELISA assay. Here, each well was coated with 100 μl of recombinant hTNFα at a concentration of 4 μg/ml. Next, in Micro Tube (AXYGEN, U.S.A.) recombinant hTNFα was diluted with PBS solution supplemented with 0.02% bovine serum albumin to obtain the final concentration ranging from 5×10⁻⁹ M to 1×10⁻¹⁰ M. hTNFα diluents having various concentrations were mixed with 30 μg of TSK11 antibody and maintained at 37° C. for 2 hours. The mixed solution was distributed to the each well coated with the recombinant hTNFα, and incubated at 37° C. for 2 hours. Then, 100 μl of a horseradish peroxiadase substrate solution (Bio-rad, 172-1064) was added to the each well and kept at 37° C. for 3 minutes to induce color development. The absorbance of the each well was measured at 410 nm with ELISA reader (Dinatec inc., U.S.A.).
Apparent affinity was determined by calculating a reciprocal of the antigen concentration required in inhibiting 50% of the maximum binding in the competitive ELISA according to Scatchard plot analysis (Friguet E. et al., J. of Immunological Method 77: 305-319, 1985).

T1 sequence (P01375 77-233 limits assumed): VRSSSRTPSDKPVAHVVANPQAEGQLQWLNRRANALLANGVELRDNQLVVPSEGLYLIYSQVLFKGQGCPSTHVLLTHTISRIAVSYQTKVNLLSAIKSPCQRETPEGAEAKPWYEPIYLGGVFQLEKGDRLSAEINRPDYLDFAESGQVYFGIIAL

B1: monoclonal antibody produced from the hybridoma cell line TSK11 (antibody, IgG1, V domains shown)
VH: QVQLVQSGPELKKPGETVKISCKASGYTFTHYGMNWVKQAPGEGLKWMGWINTNTGEPRYDEEFKGRFAFSLETSASTAYLQINNLRREDTATYFCARYDSRGFDCWGQGTTLTVSS
VL: QIVLTQSPAIMSASLGERVTMTCTASSSISYNYFHWYQQRPGSSPKLWIYSSSNLASGVPPRISGSGSGTSYSLTISSMEAEDAATYYCHQYERSPWTFGGGTKLEIKR
notes: Mouse hybridoma antibody; also called TSK11 antibody
How did the Kd turn out when B1 was run?
The Kd was 1.95 nM.

— patent publication US20050124041A1 (YUHAN, published 2005)
